Assay [1] has as its target FITC-labelled peptide (FITC)…. Nature of the assay: fluorescence polarisation. (Polarisation of emitted light reports the rotation of a fluorescent probe.)
The target of assay [2] is chicken Tapasin (chTapasin), luminal domain (chicken (Gallus gallus)). Nature of the assay: SPR.
Assay [3] shares this target. Description: NMR titration.

From paper PMC10534222 come the findings set out here.

“empty open B*37:01/chTapasin complex (from UniProt P61769 21-119)” registered a Kd in assay [1] of 5.5 nM. That is a single-digit nanomolar value.
Regarding “open HLA-B*37:01 (heavy chain G120C, β2m H31C, interchain disulfide), empty (UV-irradiated) (from UniProt P61769 21-119) (complex)”, the Kd in assay [2] is 1200 nM; in assay [1], 6.16 nM. In assay [3], this substance gave a lifetime of the complex of over 200 ms.

Usually Kd stands for the constant that tells how readily two partners part at equilibrium. Higher therefore signals a looser complex.
